# Assay results from patent publication US20250108090A1 (published 2025).
# Numbering of substitutions follows the chain as printed.
# T1: mouse AIM 2CS mutant (mouse, UniProt Q9QWK4 22-352)
# T1 construct: Isolated cysteine of the SRCR2 domain replaced by serine; also called mouse 2CS mutant; 2CS AIM mutant
# T1 sequence (looked up): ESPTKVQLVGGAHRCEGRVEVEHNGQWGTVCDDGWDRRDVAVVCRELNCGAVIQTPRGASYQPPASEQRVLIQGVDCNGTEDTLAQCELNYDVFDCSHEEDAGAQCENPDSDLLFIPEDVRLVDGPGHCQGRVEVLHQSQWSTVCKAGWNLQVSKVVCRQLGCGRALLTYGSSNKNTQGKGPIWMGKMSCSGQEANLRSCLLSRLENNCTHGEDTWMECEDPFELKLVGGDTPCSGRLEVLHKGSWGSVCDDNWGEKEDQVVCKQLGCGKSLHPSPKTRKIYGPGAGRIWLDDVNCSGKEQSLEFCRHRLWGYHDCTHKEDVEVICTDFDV
# B1: human apoptosis inhibitor of macrophage (AIM) (other)
# chain: SPSGVRLVGGLHRCEGRVEVEQKGQWGTVCDDGWDIKDVAVLCRELGCGAASGTPSGILYEPPAEKEQKVLIQSVSCTGTEDTLAQCEQEEVYDCSHDEDAGASCENPESSFSPVPEGVRLADGPGHCKGRVEVKHQNQWYTVCQTGWSLRAAKVVCRQLGCGRAVLTQKRCNKHAYGRKPIWLSQMSCSGREATLQDCPSGPWGKNTCNHDEDTWVECEDPFDLRLVGGDNLCSGRLEVLHKGVWGSVCDDNWGEKEDQVVCKQLGCGKSLSPSFRDRKCYGPGVGRIWLDNVRCSGEEQSLEQCQHRFWGFHDCTHQEDVAVICSG
# notes: also called human AIM; human rAIM
# B2: human S100A9 (9254-S9-050, R&D Systems) (ligand, UniProt P06702 1-114, looked up)
# chain: MTCKMSQLERNIETIINTFHQYSVKLGHPDTLNQGEFKELVRKDLQNFLKKENKNEKVIEHIMEDLDTNADKQLSFEEFIMLMARLTWASHEKMHEGDEGPGHHHKPGLGEGTP
# B3: mouse apoptosis inhibitor of macrophage (AIM), wild-type recombinant (other, UniProt Q9QWK4 22-352, looked up)
# chain: T1 sequence (looked up) with S173C
# notes: mature; also called rAIM; mouse AIM
# B4: mouse PRDX1-His (RPF757Mu01, USCN) (ligand, UniProt P35700 1-199, looked up)
# chain: MSSGNAKIGYPAPNFKATAVMPDGQFKDISLSEYKGKYVVFFFYPLDFTFVCPTEIIAFSDRADEFKKLNCQVIGASVDSHFCHLAWINTPKKQGGLGPMNIPLISDPKRTIAQDYGVLKADEGISFRGLFIIDDKGILRQITINDLPVGRSVDEIIRLVQAFQFTDKHGEVCPAGWKPGSDTIKPDVNKSKEYFSKQK
# notes: also called RPDX; not shown: His tag
# B5: mouse S100A9 (2065-S9-050, R&D Systems) (ligand, UniProt P31725 1-113, looked up)
# chain: MANKAPSQMERSITTIIDTFHQYSRKEGHPDTLSKKEFRQMVEAQLATFMKKEKRNEALINDIMEDLDTNQDNQLSFEECMMLMAKLIFACHEKLHENNPRGHGHSHGKGCGK
# B6: mouse PRDX2 with a HA tag (generated in house) (ligand, UniProt Q61171 1-198, looked up)
# chain: MASGNAQIGKSAPDFTATAVVDGAFKEIKLSDYRGKYVVLFFYPLDFTFVCPTEIIAFSDHAEDFRKLGCEVLGVSVDSQFTHLAWINTPRKEGGLGPLNIPLLADVTKSLSQNYGVLKNDEGIAYRGLFIIDAKGVLRQITVNDLPVGRSVDEALRLVQAFQYTDEHGEVCPAGWKPGSDTIKPNVDDSKEYFSKHN
# notes: also called PRDXs; not shown: HA tag
# B7: mouse PRDX6 with a HA tag (generated in house) (ligand, UniProt O08709 1-224, looked up)
# chain: MPGGLLLGDEAPNFEANTTIGRIRFHDFLGDSWGILFSHPRDFTPVCTTELGRAAKLAPEFAKRNVKLIALSIDSVEDHLAWSKDINAYNGETPTEKLPFPIIDDKGRDLAILLGMLDPVEKDDNNMPVTARVVFIFGPDKKLKLSILYPATTGRNFDEILRVVDSLQLTGTKPVATPVDWKKGESVMVVPTLSEEEAKQCFPKGVFTKELPSGKKYLRYTPQP
# notes: as for B6
# B8: mouse S100A8/A9 (8916-S8-050, R&D Systems) (ligand)
# chain 1: MPSELEKALSNLIDVYHNYSNIQGNHHALYKNDFKKMVTTECPQFVQNINIENLFRELDINSDNAINFEEFLAMVIKVGVASHKDSHKE
# chain 2: B5 chain
# notes: Complex of S100A8 and S100A9 as bought; also called S100A8/9
# B9: human HMGB1 (1690-HMB-050, R&D Systems) (ligand, UniProt P09429 1-215, looked up)
# chain: MGKGDPKKPRGKMSSYAFFVQTCREEHKKKHPDASVNFSEFSKKCSERWKTMSAKEKGKFEDMAKADKARYEREMKTYIPPKGETKKKFKDPNAPKRPPSAFFLFCSEYRPKIKGEHPGLSIGDVAKKLGEMWNNTAADDKQPYEKKAAKLKEKYEKDIAAYRAKGKPDAAKKGVVKAEKSKKKKEEEEDEEDEEDEEEEEDEEDEDEEEDDDDE
# notes: also called high-mobility-group-box 1
# B10: mouse PRDX1 with a HA tag (generated in house) (ligand, UniProt P35700 1-199, looked up)
# chain: B4 chain
# notes: also called peroxiredoxin 1; mouse PRDXs with a HA tag; not shown: HA tag
# B11: mouse S100A8 (9877-S8-050, R&D Systems) (ligand, UniProt P27005 1-89, looked up)
# chain: B8 chain 1
# B12: human S100A8 (9876-58-050, R&D Systems) (ligand, UniProt P05109 1-93, looked up)
# chain: MLTELEKALNSIIDVYHKYSLIKGNFHAVYRDDLKKLLETECPQYIRKKGADVWFKELDINTDGAVNFQEFLILVIKMGVAAHKKSHEESHKE
# B13: human S100A8/A9 (8226-S8-050, R&D Systems) (ligand)
# chain 1: B12 chain
# chain 2: B2 chain
# notes: as for B8
# How the values were obtained:
# [1] = biological target: human HSP70 (Endotoxin Free; SPR-117A, StressMarq) (human, UniProt P0DMV8 1-641); assay: ELISA, DAMP coated at 2 µg/mL, AIM in solution (FIG. 4)
# Source text: (§1) Therefore, AIM is considered to stably bind to DAMPs through two independent binding modes, namely, charge-based interaction and disulfide bond formation. These two binding sites are also used to bind AIM and IgM pentamer, as previously reported by the present inventors (Hiramoto et al., (2018) (the aforementioned)). […] Furthermore, IgM pentamer not bound to AIM inhibited the binding of AIM to DAMPs in a dose-dependent manner (FIG. 3G). That is, the binding to IgM pentamer functionally inactivates AIM in the binding to DAMPs. Furthermore, the present inventors evaluated under a fluorescence microscope whether the trap and uptake of PRDX1, HMGB1, and S100A9 by macrophages in vitro is inhibited in the presence of rAIM. […] It is known that somewhat larger molecules are more easily taken up by phagocytes (Aderem & Underhill, (1999). Mechanisms of Phagocytosis in Macrophages. Annu. Rev. Immunol. 17, 593-623.; Sarrias et al., (2005) (the aforementioned); Canton et al., Scavenger receptors in homeostasis and immunity. Nat. Rev. Immunol. 13, 621-634.). Therefore, induction of PRDX1 aggregation by AIM is further advantageous for PRDX1 phagocytosis.
# [2] = biological target: B1; assay: ELISA, DAMP coated at 2 µg/mL, AIM in solution (FIG. 3A)
# Source text: as §1
# [3] = biological target: mouse HSP70-A1 (low endotoxin; ADI-ESP-502-D, Enzo) (mouse, UniProt Q61696 1-641); assay: ELISA, DAMP coated at 2 µg/mL, AIM in solution (FIG. 4)
# Source text: as §1
# [4] = biological target: B3; assay: immunofluorescence co-localisation on peritoneal macrophages, confocal microscope (FIG. 3H)
# Experimental: Peritoneal macrophages isolated from AIM^{-/-} mice were plated on a Lab-Tek II chamber slide (NalgeNunk) and cultured for 2 h to let them attach to the slide. The cells were incubated with 10 μg/mL of DAMPs (mouse PRDX1-His, human PRDX1-His, human HMGB1, or mouse S100A9) with or without wild-type mouse or human rAIM (100 μg/mL) at 37° C. for 10 min. For mouse PRDX1, the mutants of 2CS or ΔSRCR3 were also used. Each ligand and AIM were immunostained with antibodies to His (for mouse and human PRDX1), HMGB1 or S100A9, followed by fluorescent-conjugated secondary antibodies. Nuclei were stained with 4′,6-diamidino-2-phenylindole (DAPI). The cells were analyzed under a florescence confocal microscope.
# mouse AIM 2CS mutant = biological target: T1, mouse AIM 2CS mutant; assay: ELISA on coated DAMP (FIG. 3E)
# Experimental: 96-well ELISA plates were coated with DAMPs and control proteins resolved in Bicarbonate buffer (0.1 M NaHCO₃/Na₂CO₃, pH 9.6) at 2 μg/mL unless otherwise specified O/N at 4° C. After the plates were washed with tris buffered saline-tween (TBS-T) four times, they were coated with blocking buffer (1% Casein/TBS) for 2 h at RT. After a wash with TBS-T, AIM resolved in a dilution buffer (0.2% Casein/TBS/2 mM CaCl₂) at various concentrations was added to the well and plates were incubated for 1 h at RT. After 5-times wash with TBS-T/2 mM CaCl₂, biotinylated anti-mouse or human AIM antibody (clone #35 for mouse, clone 7 for human) was added to the wells and incubated for 1 h at RT. After 4-times wash with TBS-T/2 mM CaCl₂, Streptavidin-HRP diluted in 0.2% Casein/TBS/2 mM CaCl₂ was added to the wells and incubated for 1 h at RT. After 4-times wash with TBS-T/2 mM CaCl₂, TMB was added and incubated at RT for 10-25 min. The reaction was stopped by adding 1 N H₂SO₄ and thereby the absorbance at OD 450 nm was analyzed using a multiple plate reader.
# [5] = biological target: B3; assay: ELISA, DAMP coated at 2 µg/mL, AIM in solution (FIG. 3A)
# Source text: as §1
# [6] = biological target: B3; assay: ELISA, DAMP coated at 2 µg/mL, AIM in solution (FIG. 4)
# Source text: as §1
# [7] = biological target: B1; assay: as above
# Source text: as §1
# Chain of human HSP70 (Endotoxin Free; SPR-117A, StressMarq) (P0DMV8 whole entry): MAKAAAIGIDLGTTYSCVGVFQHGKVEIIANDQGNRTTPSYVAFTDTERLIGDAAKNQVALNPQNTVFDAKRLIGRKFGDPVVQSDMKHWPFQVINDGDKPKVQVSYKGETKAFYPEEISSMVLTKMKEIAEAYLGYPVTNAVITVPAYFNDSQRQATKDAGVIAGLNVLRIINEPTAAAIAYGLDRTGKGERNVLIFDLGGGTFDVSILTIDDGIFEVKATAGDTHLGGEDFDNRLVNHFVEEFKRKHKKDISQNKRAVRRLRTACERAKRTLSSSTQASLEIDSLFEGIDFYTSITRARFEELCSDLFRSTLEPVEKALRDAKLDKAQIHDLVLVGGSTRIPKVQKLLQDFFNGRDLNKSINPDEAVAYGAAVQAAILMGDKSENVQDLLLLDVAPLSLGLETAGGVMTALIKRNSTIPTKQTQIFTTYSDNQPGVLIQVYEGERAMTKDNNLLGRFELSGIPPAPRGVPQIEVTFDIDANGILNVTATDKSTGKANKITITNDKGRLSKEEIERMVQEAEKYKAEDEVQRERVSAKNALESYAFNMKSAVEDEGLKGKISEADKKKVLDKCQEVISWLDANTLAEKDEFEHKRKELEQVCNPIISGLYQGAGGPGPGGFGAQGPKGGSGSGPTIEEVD
# Chain of mouse HSP70-A1 (low endotoxin; ADI-ESP-502-D, Enzo) (Q61696 whole entry): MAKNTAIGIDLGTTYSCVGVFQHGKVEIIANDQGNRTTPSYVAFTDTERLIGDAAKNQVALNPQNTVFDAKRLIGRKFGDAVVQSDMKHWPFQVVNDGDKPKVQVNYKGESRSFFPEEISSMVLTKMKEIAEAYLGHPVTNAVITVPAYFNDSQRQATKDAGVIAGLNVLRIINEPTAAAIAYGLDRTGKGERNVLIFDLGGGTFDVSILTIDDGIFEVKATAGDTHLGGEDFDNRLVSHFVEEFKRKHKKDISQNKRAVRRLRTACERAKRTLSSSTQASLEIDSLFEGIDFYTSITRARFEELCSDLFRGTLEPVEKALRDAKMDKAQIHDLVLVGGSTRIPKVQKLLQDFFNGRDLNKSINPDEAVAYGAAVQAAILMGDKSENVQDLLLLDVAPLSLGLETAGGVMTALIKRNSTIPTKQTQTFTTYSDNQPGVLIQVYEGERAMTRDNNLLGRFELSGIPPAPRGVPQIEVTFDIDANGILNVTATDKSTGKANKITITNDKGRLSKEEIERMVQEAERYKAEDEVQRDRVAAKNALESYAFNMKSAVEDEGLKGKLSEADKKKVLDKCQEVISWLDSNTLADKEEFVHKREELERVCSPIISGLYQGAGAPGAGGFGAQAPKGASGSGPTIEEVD
binder,measurement,setting,value
B1,binding result,[1],binds
B2,binding result,[2],binds
B3,binding result,[3],binds
B4,binding result,[4],binds
B5,binding result,mouse AIM 2CS mutant,no binding
same,binding result,[5],binds
B6,binding result,[6],binds
B7,binding result,[6],binds
B8,binding result,[6],binds
B9,binding result,mouse AIM 2CS mutant,no binding
same,binding result,[2],binds
same,binding result,[5],binds
B10,binding result,mouse AIM 2CS mutant,no binding
same,binding result,[5],binds
B11,binding result,[6],binds
B12,binding result,[7],binds
B13,binding result,[7],binds
